IntAct's records for PubMed 31515488

B1: pre-mRNA splicing regulator USH1G (Homo sapiens), Q495M9 (parent)
chain: MNDQYHRAARDGYLELLKEATRKELNAPDEDGMTPTLWAAYHGNLESLRLIVSRGGDPDKCDIWGNTPLHLAASNGHLHCLSFLVSFGANIWCLDNDYHTPLDMAAMKGHMECVRYLDSIAAKQSSLNPKLVGKLKDKAFREAERRIRECAKLQRRHHERMERRYRRELAERSDTLSFSSLTSSTLSRRLQHLALGSHLPYSQATLHGTARGKTKMQKKLERRKQGGEGTFKVSEDGRKSARSLSGLQLGSDVMFVRQGTYANPKEWGRAPLRDMFLSDEDSVSRATLAAEPAHSEVSTDSGHDSLFTRPGLGTMVFRRNYLSSGLHGLGREDGGLDGVGAPRGRLQSSPSLDDDSLGSANSLQDRSCGEELPWDELDLGLDEDLEPETSPLETFLASLHMEDFAALLRQEKIDLEALMLCSDLDLRSISVPLGPRKKILGAVRRRRQAMERPPALEDTEL
partner: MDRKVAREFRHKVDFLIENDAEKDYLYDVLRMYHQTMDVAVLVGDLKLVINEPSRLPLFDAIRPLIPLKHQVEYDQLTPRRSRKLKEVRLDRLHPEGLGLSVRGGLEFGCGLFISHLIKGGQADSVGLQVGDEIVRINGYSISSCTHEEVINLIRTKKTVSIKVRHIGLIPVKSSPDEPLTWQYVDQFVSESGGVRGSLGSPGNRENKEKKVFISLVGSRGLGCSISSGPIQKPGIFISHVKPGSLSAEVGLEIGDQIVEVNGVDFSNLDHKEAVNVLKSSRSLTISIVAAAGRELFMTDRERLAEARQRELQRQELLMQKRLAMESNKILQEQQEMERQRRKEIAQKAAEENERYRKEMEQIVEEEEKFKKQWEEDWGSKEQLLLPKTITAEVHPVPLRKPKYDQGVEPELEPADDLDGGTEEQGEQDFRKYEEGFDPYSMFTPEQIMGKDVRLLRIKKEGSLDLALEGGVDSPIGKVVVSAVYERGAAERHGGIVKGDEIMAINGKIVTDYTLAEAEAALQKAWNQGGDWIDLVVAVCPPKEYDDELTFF
B2: PiggyBac transposable element-derived protein 1 (Homo sapiens), Q96JS3 (parent)
chain: MYEALPGPAPENEDGLVKVKEEDPTWEQVCNSQEGSSHTQEICRLRFRHFCYQEAHGPQEALAQLRELCHQWLRPEMHTKEQIMELLVLEQFLTILPKELQPCVKTYPLESGEEAVTVLENLETGSGDTGQQASVYIQGQDMHPMVAEYQGVSLECQSLQLLPGITTLKCEPPQRPQGNPQEVSGPVPHGSAHLQEKNPRDKAVVPVFNPVRSQTLVKTEEETAQAVAAEKWSHLSLTRRNLCGNSAQETVMSLSPMTEEIVTKDRLFKAKQETSEEMEQSGEASGKPNRECAPQIPCSTPIATERTVAHLNTLKDRHPGDLWARMHISSLEYAAGDITRKGRKKDKARVSELLQGLSFSGDSDVEKDNEPEIQPAQKKLKVSCFPEKSWTKRDIKPNFPSWSALDSGLLNLKSEKLNPVELFELFFDDETFNLIVNETNNYASQKNVSLEVTVQEMRCVFGVLLLSGFMRHPRREMYWEVSDTDQNLVRDAIRRDRFELIFSNLHFADNGHLDQKDKFTKLRPLIKQMNKNFLLYAPLEEYYCFDKSMCECFDSDQFLNGKPIRIGYKIWCGTTTQGYLVWFEPYQEESTMKVDEDPDLGLGGNLVMNFADVLLERGQYPYHLCFDSFFTSVKLLSALKKKGVRATGTIRENRTEKCPLMNVEHMKKMKRGYFDFRIEENNEIILCRWYGDGIISLCSNAVGIEPVNEVSCCDADNEEIPQISQPSIVKVYDECKEGVAKMDQIISKYRVRIRSKKWYSILVSYMIDVAMNNAWQLHRACNPGASLDPLDFRRFVAHFYLEHNAHLSD
partner: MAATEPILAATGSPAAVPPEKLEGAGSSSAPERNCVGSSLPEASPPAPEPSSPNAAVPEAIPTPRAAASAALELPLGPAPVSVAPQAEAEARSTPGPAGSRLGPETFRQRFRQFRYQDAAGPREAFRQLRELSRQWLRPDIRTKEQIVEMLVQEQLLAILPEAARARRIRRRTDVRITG
B3: TNF receptor-associated factor 2 (Homo sapiens), Q12933 (parent)
chain: MAAASVTPPGSLELLQPGFSKTLLGTKLEAKYLCSACRNVLRRPFQAQCGHRYCSFCLASILSSGPQNCAACVHEGIYEEGISILESSSAFPDNAARREVESLPAVCPSDGCTWKGTLKEYESCHEGRCPLMLTECPACKGLVRLGEKERHLEHECPERSLSCRHCRAPCCGADVKAHHEVCPKFPLTCDGCGKKKIPREKFQDHVKTCGKCRVPCRFHAIGCLETVEGEKQQEHEVQWLREHLAMLLSSVLEAKPLLGDQSHAGSELLQRCESLEKKTATFENIVCVLNREVERVAMTAEACSRQHRLDQDKIEALSSKVQQLERSIGLKDLAMADLEQKVLEMEASTYDGVFIWKISDFARKRQEAVAGRIPAIFSPAFYTSRYGYKMCLRIYLNGDGTGRGTHLSLFFVVMKGPNDALLRWPFNQKVTLMLLDQNNREHVIDAFRPDVTSSSFQRPVNDMNIASGCPLFCPVSKMEAKNSYVRDDAIFIKAIVDLTGL
partner: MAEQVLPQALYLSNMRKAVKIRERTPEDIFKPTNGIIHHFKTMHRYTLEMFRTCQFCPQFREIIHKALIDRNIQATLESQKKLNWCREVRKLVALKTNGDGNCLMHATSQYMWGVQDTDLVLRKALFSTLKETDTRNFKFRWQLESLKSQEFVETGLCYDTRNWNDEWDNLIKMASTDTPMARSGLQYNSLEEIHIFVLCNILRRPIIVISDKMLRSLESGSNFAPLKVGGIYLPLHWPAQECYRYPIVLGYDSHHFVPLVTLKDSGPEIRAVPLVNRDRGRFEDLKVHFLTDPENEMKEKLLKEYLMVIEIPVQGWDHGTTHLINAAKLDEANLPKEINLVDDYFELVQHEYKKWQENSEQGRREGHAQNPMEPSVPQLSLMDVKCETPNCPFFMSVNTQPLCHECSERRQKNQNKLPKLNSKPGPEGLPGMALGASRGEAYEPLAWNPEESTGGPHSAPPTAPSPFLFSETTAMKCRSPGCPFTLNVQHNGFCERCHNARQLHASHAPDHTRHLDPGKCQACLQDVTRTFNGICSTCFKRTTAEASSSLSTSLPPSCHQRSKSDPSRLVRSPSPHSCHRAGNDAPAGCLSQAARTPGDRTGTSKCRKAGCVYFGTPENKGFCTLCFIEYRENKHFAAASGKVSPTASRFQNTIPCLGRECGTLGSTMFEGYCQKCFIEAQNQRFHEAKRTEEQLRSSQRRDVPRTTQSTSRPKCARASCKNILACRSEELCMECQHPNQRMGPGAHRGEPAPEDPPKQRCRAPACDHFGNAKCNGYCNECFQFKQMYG
B4: Thioredoxin-like protein 4B (Homo sapiens), Q9NX01 (parent)
chain: MSFLLPKLTSKKEVDQAIKSTAEKVLVLRFGRDEDPVCLQLDDILSKTSSDLSKMAAIYLVDVDQTAVYTQYFDISYIPSTVFFFNGQHMKVDYGSPDHTKFVGSFKTKQDFIDLIEVIYRGAMRGKLIVQSPIDPKNIPKYDLLYQDI

Variants of: B1
Settings: with ush1c_human USH1C

| effect of a mutation on the interaction | Variant |
| --- | --- |
| with no effect | L48P |
| with no effect | L16V |
| with no effect | E393D |

Variants of: B2
Settings: with scnd1_human SCAND1, P57086

| effect of a mutation on the interaction | Variant |
| --- | --- |
| with no effect | P256L |
| with no effect | G244E |
| with no effect | N398S |
| with no effect | Q248E |
| with no effect | I678V |

Variants of: B3
Settings: with tnap3_human TNFAIP3, P21580

| effect of a mutation on the interaction | Variant |
| --- | --- |
| with no effect | V206I |
| with no effect | T134A |
| with no effect | A264T |

Variants of: B4
Settings: with itf2_human TCF4, P15884
Chain of itf2_human TCF4, P15884 (P15884 whole entry): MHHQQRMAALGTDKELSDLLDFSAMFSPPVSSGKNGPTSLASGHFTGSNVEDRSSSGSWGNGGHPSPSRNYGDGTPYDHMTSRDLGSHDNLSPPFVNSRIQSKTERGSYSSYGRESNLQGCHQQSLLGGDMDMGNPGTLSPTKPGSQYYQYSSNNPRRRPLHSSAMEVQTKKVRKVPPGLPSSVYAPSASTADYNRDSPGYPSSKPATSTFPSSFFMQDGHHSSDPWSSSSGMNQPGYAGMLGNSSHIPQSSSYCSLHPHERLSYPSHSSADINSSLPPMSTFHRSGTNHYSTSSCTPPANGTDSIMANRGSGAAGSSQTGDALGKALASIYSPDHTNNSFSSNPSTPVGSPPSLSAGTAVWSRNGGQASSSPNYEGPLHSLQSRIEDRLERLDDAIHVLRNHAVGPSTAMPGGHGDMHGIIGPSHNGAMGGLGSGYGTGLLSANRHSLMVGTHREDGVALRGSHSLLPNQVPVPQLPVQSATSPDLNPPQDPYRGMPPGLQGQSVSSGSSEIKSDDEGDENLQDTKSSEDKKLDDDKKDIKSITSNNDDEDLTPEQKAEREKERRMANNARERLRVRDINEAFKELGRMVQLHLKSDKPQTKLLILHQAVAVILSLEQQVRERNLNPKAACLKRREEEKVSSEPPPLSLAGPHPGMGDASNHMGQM

| effect of a mutation on the interaction | Variant |
| --- | --- |
| with no effect | I119M |
